This note sets out measurements from paper PMC12013513 (2025).

The chains are these.
B1: GST-ANI-1^C-term (681-1159 AA) [C. elegans] / 10xHis-RHO-1^WT (wild type RHO-1, 1-188 AA) [C. elegans] (parent complex)
chain 1: DDDATTQFPVPERSRKSSSQLAYSVSFYRKIQRDRNEESSTVLAGPVISQISPSAPPMSSSLTSQQKLRQLTTGPANGARIVESAKDAHDRIKRAIQVEEQLVAQSKRAMILARDKPSFRGSREEFEAQWAMLRHVEKHRALLTEYDRLKRDGPRIIDGPRGTITVSQLSVNMARDYVSANIASSKKSDEVFYFAAILRYGEQVDVSKMVTSDGGLNRRGVLEFPVPLMLTGIPPDFRATVEIYGQRSMRESTSHEDKYKLKNSTFKAKTRNTFLGGGSTSSANQSLFVDPAASSSSTSSTTSNFNLLGTFSFDINCPGKHLYNMSHTVYPLEGITQMKVRKQAIDGADITYHGFLSMYQRTGEGLGSWTRYWCALENGEMKFWKQPEDEGTKGYTALMDLSTCCRSEGASVVEDICPFPNSFHIDVWAPKMDTSDPRGIERLRVMLAADTAQDLQTWLSLINSTSKQLCTWRNPIVNQ
chain 2: not shown

In the experiment the parent is B1. Kind of experiment: pull-down; parent: 14; read off a plot.
chain 1 A109D, chain 1 E127K: the response was ~17 % of Bound RHO-1.
